We go through three molecules from paper doi:10.1101/2020.01.13.904870 (bioRxiv, 2020).

As usually defined, the stoichiometry N is a count of units in the complex or per binding partner.

For data set [1], the target named is AtFN3K C32A/C236A/C196A triple cysteine mutant (Arabidopsis thaliana). Description: AUC.
The target is the same in data set [2]. The data set is described as follows: SEC.
The target in data set [3] is Arabidopsis thaliana Fructosamine-3-kinase homolog (AtFN3K), wild type (Arabidopsis thaliana) (UniProt Q9LEW8). The data set is described as follows: SEC. (In general: In gel filtration, larger molecules generally elute earlier.)
Data set [4] deals with the molecule itself. Description: non-reducing SDS-PAGE.

On to “AtFN3K C32A/C236A/C196A triple cysteine mutant (enzyme)”, for which the stoichiometry N in data set [1] and in data set [2] was 2 throughout.

The molecule “Arabidopsis thaliana Fructosamine-3-kinase homolog (AtFN3K), wild type (from UniProt Q9LEW8 31-326) (enzyme)” gave a stoichiometry N in data set [3] of 2.

B1: Recombinant His-HsFN3K (human Fructosamine-3-kinase), wild type (enzyme, UniProt Q9H479 1-309, looked up)
chain: MEQLLRAELRTATLRAFGGPGAGCISEGRAYDTDAGPVFVKVNRRTQARQMFEGEVASLEALRSTGLVRVPRPMKVIDLPGGGAAFVMEHLKMKSLSSQASKLGEQMADLHLYNQKLREKLKEEENTVGRRGEGAEPQYVDKFGFHTVTCCGFIPQVNEWQDDWPTFFARHRLQAQLDLIEKDYADREARELWSRLQVKIPDLFCGLEIVPALLHGDLWSGNVAEDDVGPIIYDPASFYGHSEFELAIALMFGGFPRSFFTAYHRKIPKAPGFDQRLLLYQLFNYLNHWNHFGREYRSPSLGTMRRLLK
For the molecule B1, the binding result in data set [4] is “binds”.
